Measurements taken from article doi:10.1101/2024.08.29.610189 (bioRxiv, 2024).

T1: Atg17–Atg29–Atg31 complex, wild type (S. cerevisiae (budding yeast), UniProt Q06410 1-417; Q12092 1-213; Q12421 1-196)
T1 sequence (looked up) 1: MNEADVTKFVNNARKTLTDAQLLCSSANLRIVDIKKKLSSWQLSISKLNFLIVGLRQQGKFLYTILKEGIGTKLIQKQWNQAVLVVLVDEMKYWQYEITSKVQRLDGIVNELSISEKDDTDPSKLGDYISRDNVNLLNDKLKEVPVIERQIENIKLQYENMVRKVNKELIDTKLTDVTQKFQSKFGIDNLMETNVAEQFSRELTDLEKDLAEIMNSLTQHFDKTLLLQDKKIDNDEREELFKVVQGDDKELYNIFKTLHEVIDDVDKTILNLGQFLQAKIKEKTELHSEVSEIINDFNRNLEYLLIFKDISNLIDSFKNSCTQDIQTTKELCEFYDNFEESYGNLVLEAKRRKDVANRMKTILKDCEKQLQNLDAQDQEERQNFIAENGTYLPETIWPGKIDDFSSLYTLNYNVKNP
T1 sequence (looked up) 2: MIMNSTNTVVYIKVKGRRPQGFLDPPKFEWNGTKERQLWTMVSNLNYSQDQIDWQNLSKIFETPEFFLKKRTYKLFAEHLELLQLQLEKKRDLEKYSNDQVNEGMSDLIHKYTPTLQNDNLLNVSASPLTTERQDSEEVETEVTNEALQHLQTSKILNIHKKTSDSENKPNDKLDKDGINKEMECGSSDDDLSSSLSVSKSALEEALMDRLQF
T1 sequence (looked up) 3: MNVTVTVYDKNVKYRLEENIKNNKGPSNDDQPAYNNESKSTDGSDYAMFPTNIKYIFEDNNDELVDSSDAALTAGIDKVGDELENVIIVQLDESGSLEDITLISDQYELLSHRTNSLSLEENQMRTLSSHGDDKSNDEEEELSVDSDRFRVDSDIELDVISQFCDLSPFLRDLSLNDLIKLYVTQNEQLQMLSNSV


Columns and labels:
[1] = target: T1, Atg17–Atg29–Atg31 complex, wild type; assay: pull-down
[2] = target: Atg17–Atg31C (residues 174–196) complex (S. cerevisiae (budding yeast), UniProt Q06410 1-417; Q12421 174-196); assay: ITC

binding result [1] | Kd [2] | Binder
binds | – | TVQNRLELASRRLSQLGLASD (domain or fragment, S. cerevisiae (budding yeast), UniProt P38316 42-62, looked up) [GST–Atg12^17BH F50A]
– | 3.8 µM | TVQNRLELFSRRLSQLGLASD (domain or fragment, S. cerevisiae (budding yeast), UniProt P38316 42-62, looked up) [Atg12^17BH–mGFP, wild type (Atg12 residues 42–62 with C-terminal mGFP)]
